Results published in patent US20170165337A1 (IMMATICS BIOTECHNOLOGIES, published 2017).

biological target: T1, HLA-A*02:01 (human); test: UV peptide-exchange ELISA
T1 construct: MHC class I monomer of the UV-ligand exchange assay; also called peptide-receptive MHC molecules; MHC class I
Summary of the method: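 Peptide-MHC complexes formed by UV-mediated exchange of a UV-cleavable peptide for the test peptide; exchange yield quantified by β2m ELISA. Diluted 100-fold, captured on streptavidin-coated plates 1 h at 37 °C, detected with HRP anti-β2m and TMB at 450 nm against refolded HLA-A*02:01 monomer standards (15-500 ng/ml).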

| Binder | peptide exchange yield |
| --- | --- |
| FVYFIVREV | 50 to 75% |
| FIMEGGAMVL | ≥ 75% |
| SLFGPLPGPGPALV | 50 to 75% |
| VLWFKPVEL | 50 to 75% |
| GLLEVISALQL | 50 to 75% |
| FLLGPEALSFA | ≥ 75% |
| YLDRKLLTL | 50 to 75% |
| FLSPQQPPLL | 50 to 75% |
| GLSIFAQDLRL | 20 to 50% |
| SLADDSVLERL | 50 to 75% |
| YTIPLAIKL | 50 to 75% |
| FMEPTLLML | 50 to 75% |
| FILTHVDQL | ≥ 75% |
| GLDDMKANL | 20 to 50% |
| FLTDYLNDL | 50 to 75% |
| FVFEAPYTL | 50 to 75% |
| FLFEPVVKAFL | 50 to 75% |
| FLIQEIKTL | 50 to 75% |
| GLLDAGKMYV | 50 to 75% |
| LISPLLLPV | 50 to 75% |
| VIAELPPKVSV | 50 to 75% |
| GLDQQFAGLDL | 10 to 20% |
| YIIDSAQAV | 50 to 75% |
| YLAELVTPIL | 50 to 75% |
| FLVETGFLHV | ≥ 75% |

| Binder | peptide exchange yield |
| --- | --- |
| GLHQREIFL | 50 to 75% |
| FLDPSLDPLL | 50 to 75% |
| FLWQHVELVL | 50 to 75% |
| VVDGTCVAV | 50 to 75% |
| KLLESVASA | 50 to 75% |
| GLSEISLRL | ≥ 75% |
| FVLDHEDGLNL | 50 to 75% |
| FLYPFPLALF | 50 to 75% |
| SLAGGLDDMKA | 50 to 75% |
| YLLEENKIKL | 50 to 75% |
| YIQQGIFSV | 50 to 75% |
| GLDDVTVEV | 20 to 50% |
| GLKHDIARV | 50 to 75% |
| SLAHVAGCEL | 50 to 75% |
| FLVEAPHDWDL | ≥ 75% |
| FLTDLFAQL | ≥ 75% |
| ILQEFESKL | 50 to 75% |
| FLDEDDMSL | 20 to 50% |
| HLIDTNKIQL | 50 to 75% |
| ALIFKIASA | 50 to 75% |
| YLLPLLQRL | ≥ 75% |
| FIWPMLIHI | 50 to 75% |
| FLDALLTDV | 50 to 75% |
| YILGKFFAL | 50 to 75% |
| ALLERTGYTL | 50 to 75% |

| Binder | peptide exchange yield |
| --- | --- |
| RLLDLENSLLGL | 50 to 75% |
| ITTEVVNELYV | 50 to 75% |
| GIIDGSPRL | 50 to 75% |
| FLPELPADLEA | 50 to 75% |
| FLHDHQAEL | 20 to 50% |
| TLLADQGEIRV | 20 to 50% |
| ALDTLEDDMTI | 50 to 75% |
| SIFASPESV | 50 to 75% |
| YMIGSEVGNYL | ≥ 75% |
| FMQDPMEVFV | 50 to 75% |
| FVFGDENGTVSL | 50 to 75% |
| FLSDQPEPYL | 20 to 50% |
| FIMEGGAMV | 50 to 75% |
| YLLREWVNL | ≥ 75% |
| FLEEGGVVTV | 50 to 75% |
| GLLRASFLL | 20 to 50% |
| FVPDTPVGV | 50 to 75% |
| VLYNQRVEEI | 50 to 75% |
| KMDWIFHTI | 50 to 75% |
| NLWSLVAKV | 50 to 75% |
| FLLSINDFL | 50 to 75% |
| VLSVITEEL | 50 to 75% |
| ILTELGGFEV | 50 to 75% |
